In the RNAGym collection of RNA variant scans (doi:10.1021/acssynbio.7b00057):

B1: Pistol ribozyme (parent)
chain: GGGUCGUUGUUCCAUAAUCGCGUGGAUAUGGCACGCAAGUUUCUACCGGGCACCGUAAAUGUCCGACUGGAGCCGUUCGGGCGGCUAUAAACAGACCUCAGGCCCGAAGCGUGGCGGCACCUGCCGCCGGUGGUAAAAAAGAUCGGAAGAGCACACGUCU

Variants of: B1
Assay: aptazyme ON/OFF ratio, guanine; higher = stronger switching; co-transcriptional cleavage with and without guanine

Variant | aptazyme ON/OFF ratio
GGGUCGCGCUCAUAUAAUCGCGUGGAUAUGGCACGCAAGUUUCUACCGGGCACCGUAAAUGUCCGACUGGAGCCGUUCGGGCGGCUAUAAACAGACCUCAGGCCCGAAGCGUGGCGGCACCUGCCGCCGGUGGUAAAAAAGAUCGGAAGAGCACACGUCU [U7C U8G G9C U11C C12A C13U] | 2.13
GGGUCGCGCUCAGAUAAUCGCGUGGAUAUGGCACGCAAGUUUCUACCGGGCACCGUAAAUGUCCGACUGGAGCCGUUCGGGCGGCUAUAAACAGACCUCAGGCCCGAAGCGUGGCGGCACCUGCCGCCGGUGGUAAAAAAGAUCGGAAGAGCACACGUCU [U7C U8G G9C U11C C12A C13G] | 1.09
GGGUCGCGCUCAAAUAAUCGCGUGGAUAUGGCACGCAAGUUUCUACCGGGCACCGUAAAUGUCCGACUGGAGCCGUUCGGGCGGCUAUAAACAGACCUCAGGCCCGAAGCGUGGCGGCACCUGCCGCCGGUGGUAAAAAAGAUCGGAAGAGCACACGUCU [U7C U8G G9C U11C C12A C13A] | 1.12
GGGUCGCGCUAAAAUAAUCGCGUGGAUAUGGCACGCAAGUUUCUACCGGGCACCGUAAAUGUCCGACUGGAGCCGUUCGGGCGGCUAUAAACAGACCUCAGGCCCGAAGCGUGGCGGCACCUGCCGCCGGUGGUAAAAAAGAUCGGAAGAGCACACGUCU [U7C U8G G9C U11A C12A C13A] | 1.15
GGGUCGCGCUAAUAUAAUCGCGUGGAUAUGGCACGCAAGUUUCUACCGGGCACCGUAAAUGUCCGACUGGAGCCGUUCGGGCGGCUAUAAACAGACCUCAGGCCCGAAGCGUGGCGGCACCUGCCGCCGGUGGUAAAAAAGAUCGGAAGAGCACACGUCU [U7C U8G G9C U11A C12A C13U] | 1.22
GGGUCGCGCUAAGAUAAUCGCGUGGAUAUGGCACGCAAGUUUCUACCGGGCACCGUAAAUGUCCGACUGGAGCCGUUCGGGCGGCUAUAAACAGACCUCAGGCCCGAAGCGUGGCGGCACCUGCCGCCGGUGGUAAAAAAGAUCGGAAGAGCACACGUCU [U7C U8G G9C U11A C12A C13G] | 1.11
GGGUCGCGCUCUCAUAAUCGCGUGGAUAUGGCACGCAAGUUUCUACCGGGCACCGUAAAUGUCCGACUGGAGCCGUUCGGGCGGCUAUAAACAGACCUCAGGCCCGAAGCGUGGCGGCACCUGCCGCCGGUGGUAAAAAAGAUCGGAAGAGCACACGUCU [U7C U8G G9C U11C C12U] | 1.33
GGGUCGCGCUCGCAUAAUCGCGUGGAUAUGGCACGCAAGUUUCUACCGGGCACCGUAAAUGUCCGACUGGAGCCGUUCGGGCGGCUAUAAACAGACCUCAGGCCCGAAGCGUGGCGGCACCUGCCGCCGGUGGUAAAAAAGAUCGGAAGAGCACACGUCU [U7C U8G G9C U11C C12G] | 1.67
GGGUCGCGCUCACAUAAUCGCGUGGAUAUGGCACGCAAGUUUCUACCGGGCACCGUAAAUGUCCGACUGGAGCCGUUCGGGCGGCUAUAAACAGACCUCAGGCCCGAAGCGUGGCGGCACCUGCCGCCGGUGGUAAAAAAGAUCGGAAGAGCACACGUCU [U7C U8G G9C U11C C12A] | 2.71
GGGUCGCGCUCCAAUAAUCGCGUGGAUAUGGCACGCAAGUUUCUACCGGGCACCGUAAAUGUCCGACUGGAGCCGUUCGGGCGGCUAUAAACAGACCUCAGGCCCGAAGCGUGGCGGCACCUGCCGCCGGUGGUAAAAAAGAUCGGAAGAGCACACGUCU [U7C U8G G9C U11C C13A] | 1.47
GGGUCGCGCUCCUAUAAUCGCGUGGAUAUGGCACGCAAGUUUCUACCGGGCACCGUAAAUGUCCGACUGGAGCCGUUCGGGCGGCUAUAAACAGACCUCAGGCCCGAAGCGUGGCGGCACCUGCCGCCGGUGGUAAAAAAGAUCGGAAGAGCACACGUCU [U7C U8G G9C U11C C13U] | 1.38
GGGUCGCGCUCCGAUAAUCGCGUGGAUAUGGCACGCAAGUUUCUACCGGGCACCGUAAAUGUCCGACUGGAGCCGUUCGGGCGGCUAUAAACAGACCUCAGGCCCGAAGCGUGGCGGCACCUGCCGCCGGUGGUAAAAAAGAUCGGAAGAGCACACGUCU [U7C U8G G9C U11C C13G] | 1.05
GGGUCGCGCUGAGAUAAUCGCGUGGAUAUGGCACGCAAGUUUCUACCGGGCACCGUAAAUGUCCGACUGGAGCCGUUCGGGCGGCUAUAAACAGACCUCAGGCCCGAAGCGUGGCGGCACCUGCCGCCGGUGGUAAAAAAGAUCGGAAGAGCACACGUCU [U7C U8G G9C U11G C12A C13G] | 1.18
GGGUCGCGCUGAAAUAAUCGCGUGGAUAUGGCACGCAAGUUUCUACCGGGCACCGUAAAUGUCCGACUGGAGCCGUUCGGGCGGCUAUAAACAGACCUCAGGCCCGAAGCGUGGCGGCACCUGCCGCCGGUGGUAAAAAAGAUCGGAAGAGCACACGUCU [U7C U8G G9C U11G C12A C13A] | 1.14
GGGUCGCGCUAUCAUAAUCGCGUGGAUAUGGCACGCAAGUUUCUACCGGGCACCGUAAAUGUCCGACUGGAGCCGUUCGGGCGGCUAUAAACAGACCUCAGGCCCGAAGCGUGGCGGCACCUGCCGCCGGUGGUAAAAAAGAUCGGAAGAGCACACGUCU [U7C U8G G9C U11A C12U] | 1.28
GGGUCGCGCUAACAUAAUCGCGUGGAUAUGGCACGCAAGUUUCUACCGGGCACCGUAAAUGUCCGACUGGAGCCGUUCGGGCGGCUAUAAACAGACCUCAGGCCCGAAGCGUGGCGGCACCUGCCGCCGGUGGUAAAAAAGAUCGGAAGAGCACACGUCU [U7C U8G G9C U11A C12A] | 1.22
GGGUCGCGCUAGCAUAAUCGCGUGGAUAUGGCACGCAAGUUUCUACCGGGCACCGUAAAUGUCCGACUGGAGCCGUUCGGGCGGCUAUAAACAGACCUCAGGCCCGAAGCGUGGCGGCACCUGCCGCCGGUGGUAAAAAAGAUCGGAAGAGCACACGUCU [U7C U8G G9C U11A C12G] | 1.16
GGGUCGCGCUGACAUAAUCGCGUGGAUAUGGCACGCAAGUUUCUACCGGGCACCGUAAAUGUCCGACUGGAGCCGUUCGGGCGGCUAUAAACAGACCUCAGGCCCGAAGCGUGGCGGCACCUGCCGCCGGUGGUAAAAAAGAUCGGAAGAGCACACGUCU [U7C U8G G9C U11G C12A] | 1.12

Variant | aptazyme ON/OFF ratio
GGGUCGCGCUCUUAUAAUCGCGUGGAUAUGGCACGCAAGUUUCUACCGGGCACCGUAAAUGUCCGACUGGAGCCGUUCGGGCGGCUAUAAACAGACCUCAGGCCCGAAGCGUGGCGGCACCUGCCGCCGGUGGUAAAAAAGAUCGGAAGAGCACACGUCU [U7C U8G G9C U11C C12U C13U] | 1.07
GGGUCGCGCUCUAAUAAUCGCGUGGAUAUGGCACGCAAGUUUCUACCGGGCACCGUAAAUGUCCGACUGGAGCCGUUCGGGCGGCUAUAAACAGACCUCAGGCCCGAAGCGUGGCGGCACCUGCCGCCGGUGGUAAAAAAGAUCGGAAGAGCACACGUCU [U7C U8G G9C U11C C12U C13A] | 1.15
GGGUCGCGCUCUGAUAAUCGCGUGGAUAUGGCACGCAAGUUUCUACCGGGCACCGUAAAUGUCCGACUGGAGCCGUUCGGGCGGCUAUAAACAGACCUCAGGCCCGAAGCGUGGCGGCACCUGCCGCCGGUGGUAAAAAAGAUCGGAAGAGCACACGUCU [U7C U8G G9C U11C C12U C13G] | 1.07
GGGUCGCGCUACGAUAAUCGCGUGGAUAUGGCACGCAAGUUUCUACCGGGCACCGUAAAUGUCCGACUGGAGCCGUUCGGGCGGCUAUAAACAGACCUCAGGCCCGAAGCGUGGCGGCACCUGCCGCCGGUGGUAAAAAAGAUCGGAAGAGCACACGUCU [U7C U8G G9C U11A C13G] | 1.06
GGGUCGCGCUACAAUAAUCGCGUGGAUAUGGCACGCAAGUUUCUACCGGGCACCGUAAAUGUCCGACUGGAGCCGUUCGGGCGGCUAUAAACAGACCUCAGGCCCGAAGCGUGGCGGCACCUGCCGCCGGUGGUAAAAAAGAUCGGAAGAGCACACGUCU [U7C U8G G9C U11A C13A] | 1.17
GGGUCGCGCUACUAUAAUCGCGUGGAUAUGGCACGCAAGUUUCUACCGGGCACCGUAAAUGUCCGACUGGAGCCGUUCGGGCGGCUAUAAACAGACCUCAGGCCCGAAGCGUGGCGGCACCUGCCGCCGGUGGUAAAAAAGAUCGGAAGAGCACACGUCU [U7C U8G G9C U11A C13U] | 1.26
GGGUCGCGCUCGAAUAAUCGCGUGGAUAUGGCACGCAAGUUUCUACCGGGCACCGUAAAUGUCCGACUGGAGCCGUUCGGGCGGCUAUAAACAGACCUCAGGCCCGAAGCGUGGCGGCACCUGCCGCCGGUGGUAAAAAAGAUCGGAAGAGCACACGUCU [U7C U8G G9C U11C C12G C13A] | 1.4
GGGUCGCGCUCGUAUAAUCGCGUGGAUAUGGCACGCAAGUUUCUACCGGGCACCGUAAAUGUCCGACUGGAGCCGUUCGGGCGGCUAUAAACAGACCUCAGGCCCGAAGCGUGGCGGCACCUGCCGCCGGUGGUAAAAAAGAUCGGAAGAGCACACGUCU [U7C U8G G9C U11C C12G C13U] | 1.27
GGGUCGCGCUCGGAUAAUCGCGUGGAUAUGGCACGCAAGUUUCUACCGGGCACCGUAAAUGUCCGACUGGAGCCGUUCGGGCGGCUAUAAACAGACCUCAGGCCCGAAGCGUGGCGGCACCUGCCGCCGGUGGUAAAAAAGAUCGGAAGAGCACACGUCU [U7C U8G G9C U11C C12G C13G] | 1.08
GGGUCGCGCUACCAUAAUCGCGUGGAUAUGGCACGCAAGUUUCUACCGGGCACCGUAAAUGUCCGACUGGAGCCGUUCGGGCGGCUAUAAACAGACCUCAGGCCCGAAGCGUGGCGGCACCUGCCGCCGGUGGUAAAAAAGAUCGGAAGAGCACACGUCU [U7C U8G G9C U11A] | 1.86
GGGUCGCGCUGCCAUAAUCGCGUGGAUAUGGCACGCAAGUUUCUACCGGGCACCGUAAAUGUCCGACUGGAGCCGUUCGGGCGGCUAUAAACAGACCUCAGGCCCGAAGCGUGGCGGCACCUGCCGCCGGUGGUAAAAAAGAUCGGAAGAGCACACGUCU [U7C U8G G9C U11G] | 1.2
GGGUCGCGCUCCCAUAAUCGCGUGGAUAUGGCACGCAAGUUUCUACCGGGCACCGUAAAUGUCCGACUGGAGCCGUUCGGGCGGCUAUAAACAGACCUCAGGCCCGAAGCGUGGCGGCACCUGCCGCCGGUGGUAAAAAAGAUCGGAAGAGCACACGUCU [U7C U8G G9C U11C] | 1.18
GGGUCGCGCUAUUAUAAUCGCGUGGAUAUGGCACGCAAGUUUCUACCGGGCACCGUAAAUGUCCGACUGGAGCCGUUCGGGCGGCUAUAAACAGACCUCAGGCCCGAAGCGUGGCGGCACCUGCCGCCGGUGGUAAAAAAGAUCGGAAGAGCACACGUCU [U7C U8G G9C U11A C12U C13U] | 1.16
GGGUCGCGCUAUGAUAAUCGCGUGGAUAUGGCACGCAAGUUUCUACCGGGCACCGUAAAUGUCCGACUGGAGCCGUUCGGGCGGCUAUAAACAGACCUCAGGCCCGAAGCGUGGCGGCACCUGCCGCCGGUGGUAAAAAAGAUCGGAAGAGCACACGUCU [U7C U8G G9C U11A C12U C13G] | 1.09
GGGUCGCGCUAUAAUAAUCGCGUGGAUAUGGCACGCAAGUUUCUACCGGGCACCGUAAAUGUCCGACUGGAGCCGUUCGGGCGGCUAUAAACAGACCUCAGGCCCGAAGCGUGGCGGCACCUGCCGCCGGUGGUAAAAAAGAUCGGAAGAGCACACGUCU [U7C U8G G9C U11A C12U C13A] | 1.19
GGGUCGCGCUAGUAUAAUCGCGUGGAUAUGGCACGCAAGUUUCUACCGGGCACCGUAAAUGUCCGACUGGAGCCGUUCGGGCGGCUAUAAACAGACCUCAGGCCCGAAGCGUGGCGGCACCUGCCGCCGGUGGUAAAAAAGAUCGGAAGAGCACACGUCU [U7C U8G G9C U11A C12G C13U] | 1.11
GGGUCGCGCUAGAAUAAUCGCGUGGAUAUGGCACGCAAGUUUCUACCGGGCACCGUAAAUGUCCGACUGGAGCCGUUCGGGCGGCUAUAAACAGACCUCAGGCCCGAAGCGUGGCGGCACCUGCCGCCGGUGGUAAAAAAGAUCGGAAGAGCACACGUCU [U7C U8G G9C U11A C12G C13A] | 1.1
GGGUCGCGCUAGGAUAAUCGCGUGGAUAUGGCACGCAAGUUUCUACCGGGCACCGUAAAUGUCCGACUGGAGCCGUUCGGGCGGCUAUAAACAGACCUCAGGCCCGAAGCGUGGCGGCACCUGCCGCCGGUGGUAAAAAAGAUCGGAAGAGCACACGUCU [U7C U8G G9C U11A C12G C13G] | 1.13
